Target: T1, FM-3 (Homo sapiens, UniProt Q9HB89)
T1 sequence (Q9HB89 24-426 limits assumed): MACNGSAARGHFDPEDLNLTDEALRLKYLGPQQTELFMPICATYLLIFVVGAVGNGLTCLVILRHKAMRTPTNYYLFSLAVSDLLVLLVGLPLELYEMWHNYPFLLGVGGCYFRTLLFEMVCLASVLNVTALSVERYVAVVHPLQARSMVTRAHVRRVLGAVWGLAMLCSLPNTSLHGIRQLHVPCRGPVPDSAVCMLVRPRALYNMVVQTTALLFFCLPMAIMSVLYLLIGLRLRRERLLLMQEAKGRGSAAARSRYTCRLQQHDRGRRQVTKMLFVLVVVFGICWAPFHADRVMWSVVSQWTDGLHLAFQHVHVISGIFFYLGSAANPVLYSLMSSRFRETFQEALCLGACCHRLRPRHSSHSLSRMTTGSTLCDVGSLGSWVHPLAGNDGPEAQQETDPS
Test: not given
Details: labeled ligand; cells confirmed to express FM-3 on the cell membrane; Tan et al., Genomics 52, 223-229, 1998; cited from earlier work

Row | Substance | binding with cells expressing FM-3
1 | Neurotensin: labeled Neurotensin, peptide ligand of the Neurotensin receptor | did not bind

Target: T1, FM-3
Test: site sensor assay of cell-stimulating activity (extracellular acidification rate)
Type: cell-based
Set-up: expressed in transfected cells
Details: FM-3-expressing CHO cells versus mock CHO cells; exposure for 7 minutes and 2 seconds; 3 cycles before exposure set as 100 %; Fig. 1
Protocol: Pig Neuromedin U-8 at the concentration indicated in FIG. 1 was added to FM-3-expressing CHO cells (●) and mock CHO cells (○) for 7 minutes and 2 seconds in the site sensor assay. The maximum value of acidification rate in the reaction was plotted.
FM-3-expressing CHO cells and mock CHO cells, which were cultured in a cell-cultured container, were digested with trypsin and dissociated. The numbers of cells are counted. Then, the cells were inoculated in the capsules for site sensor (2.7 x 10^5 cells/capsule). After incubating them overnight, the capsules containing the cells were transferred to the sensor chamber for measurement, and then mounted to the workstation of the site sensor. The portion containing the cells was refluxed with low-buffered RMPI medium supplemented with 0.1% bovine serum albumin, and it was left still until the acidification rate became stable. The measurement of the acidification rate was made during pumping cycle of ON for 80 seconds and OFF for 40 seconds(2 minutes to one cycle). A rate of change in extracellular pH from 8 to 30 seconds after the pumping off was calculated as an acidification rate with the site sensor.
Pig Neuromedin-8 (BACHEM, H-5505, SEQ ID NO:5) was dissolved in distilled water at the concentration of 10mM, and then the gradually diluted solutions were prepared with low buffered RPMI medium containing 0.1% BSA. […]

Row | Substance | cell-stimulating activity (acidification rate)
2 | Pig Neuromedin-8: pig Neuromedin U-8, peptide of 8 amino acid residues, BACHEM, H-5505, SEQ ID NO:5 | detected in a does-dependent manner and specific to FM-3-expressing CHO cells

Target: T2, FM-3 (Homo sapiens, UniProt Q9HB89)
T2 sequence (Q9HB89 1-426): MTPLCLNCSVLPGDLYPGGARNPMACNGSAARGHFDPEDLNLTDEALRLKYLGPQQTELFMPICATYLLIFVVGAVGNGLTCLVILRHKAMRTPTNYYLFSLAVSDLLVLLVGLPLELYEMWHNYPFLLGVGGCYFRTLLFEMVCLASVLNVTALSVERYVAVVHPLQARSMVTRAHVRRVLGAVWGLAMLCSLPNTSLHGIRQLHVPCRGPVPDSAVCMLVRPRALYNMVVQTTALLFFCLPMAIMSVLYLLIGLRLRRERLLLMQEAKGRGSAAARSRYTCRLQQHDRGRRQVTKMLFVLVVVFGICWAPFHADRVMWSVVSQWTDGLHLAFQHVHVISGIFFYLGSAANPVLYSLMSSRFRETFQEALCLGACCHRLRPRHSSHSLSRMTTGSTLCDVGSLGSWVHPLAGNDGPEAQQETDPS
Test: not given
Details: free intracellular calcium ion release measured as an index; Tan et al.; cited from earlier work

Row | Substance | activation of FM-3
3 | thyrotropin releasing hormone | not detected
4 | VIP: vasoactive intestinal peptide, examined for activation of FM-3 | not detected
5 | calcitonin: peptide examined for activation of FM-3 | not detected
6 | galanin: peptide examined for activation of FM-3 | not detected
7 | growth hormone releasing hormone: peptide examined for activation of FM-3 | not detected
8 | somatostatin: peptide examined for activation of FM-3 | not detected
9 | endothelin | not detected

Reference: patent EP1237001A1, “SCREENING METHOD” (Takeda Chemical Industries, Ltd., priority 1999, dated 2001)
